Laboratory results: the supplement of paper PMC7877785
± gives the uncertainty stated by the source.

Experiment: self-splicing fitness, log relative to wild type (ln ratio); higher = more splicing; Tetrahymena group I intron in knt gene, E. coli kanamycin selection, DiMSum; sequences stand for … in CUCUCU…GGAGGGAAAAGUUAUCAGGCAUGCACCUGGUAGCUAGUCUUUAAACCAAUAGAUUGCAUCGGUUUAAAAGGCAAGACCGUCAAAUUGCGGGAAAGGGGUCAACAGCCGUUCAGUACCAAGUCUCAGGGGAAACUUUGAGAUGGCCUUGCAAAGGGUAUGGUAAUAAGCUGACGGACAUGGUCCUAACCACGCAGCCAAGUCCUAAGUCAACAGAUCUUCUGUUGAUAUGGAUGCAGUUCACAGACUAAAUGUCGGUCGGGGAAGAUGUAUUCUUCUCAUAAGAUAUAGUCGGACCUCUCCUUAAUGGGAGCUAGCGGAUGAAGUGAUGCAACACUGGAGCCGCUGGGAACUAAUUUGUAUGCGAAAGUAUAUUGAUUAGUUUUGGAGUACUCGUGGUCG
How it was run: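 Fitness was computed with DiMSum as the error-weighted combination of replicate fold changes, kanamycin versus none, each normalised to wild type. The library randomised all eight intron nucleotides of the P1ex region, with the intron placed in the knt kanamycin-resistance gene on pET-22b(+) in E. coli BL21(DE3). Six replicate transformations were grown overnight at 37°C or 30°C on LB agar with or without 25 μg/mL kanamycin, plus 100 μg/mL carbenicillin, 50 μM IPTG and 0.2% rhamnose. Pooled colonies were amplicon-sequenced on an Illumina HiSeq 2500.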

Row | Sequence | self-splicing fitness (ln) (30 °C) | self-splicing fitness (ln) (37 °C)
1 | UUCAAGCAAUAUUACGACGU | -0.831 ± 0.094 | 0.325 ± 0.13
2 | AAUCAGCAAUAUUACGGCGG | -1.05 ± 0.1 | 0.206 ± 0.14
3 | ACACAGCAAUAUUACGCGCU | -0.741 ± 0.059 | -0.491 ± 0.068
4 | UGUAAGCAAUAUUACGACCA | 0.386 ± 0.12 | 0.0758 ± 0.19
5 | GUAGAGCAAUAUUACGUUAG | -2.43 ± 0.12 | -0.99 ± 0.19
6 | UAGCAGCAAUAUUACGCAUA | -1.09 ± 0.07 | -0.101 ± 0.079
7 | AUCGAGCAAUAUUACGCGGC | -2.86 ± 0.5 | -3.13 ± 0.47
8 | UUACAGCAAUAUUACGCGUA | -3.07 ± 0.2 | -1.94 ± 0.16
9 | CCCCAGCAAUAUUACGCGAC | -3.37 ± 0.21 | -2.49 ± 0.25
10 | ACACAGCAAUAUUACGUCAC | -3.22 ± 0.16 | -2.86 ± 0.27
11 | UACUAGCAAUAUUACGACUG | -0.572 ± 0.095 | 0.113 ± 0.13
12 | CUGAAGCAAUAUUACGGAAC |  | -2.55 ± 0.3
13 | UCAUAGCAAUAUUACGGCUA | -2.69 ± 0.27 | -2.37 ± 0.39
14 | CCUAAGCAAUAUUACGCGCU | -2.38 ± 0.22 | -2.75 ± 0.3
15 | CCGAAGCAAUAUUACGGUCA | -3.56 ± 0.2 | -2.55 ± 0.18
16 | UGCCAGCAAUAUUACGUCUU | -2.22 ± 0.18 | -1.86 ± 0.21
17 | AAUAAGCAAUAUUACGUGAA | -2.46 ± 0.16 | -0.674 ± 0.13
18 | UGACAGCAAUAUUACGUCGU | -1.56 ± 0.15 | -3.25 ± 0.24
19 | CUGGAGCAAUAUUACGCGUG | -3.27 ± 0.15 | 0.32 ± 0.12
20 | AUUAAGCAAUAUUACGUCUC | -2.06 ± 0.12 | -1.4 ± 0.19
21 | ACUUAGCAAUAUUACGUUGC | -3.9 ± 0.38 | -1.8 ± 0.26
22 | GAUUAGCAAUAUUACGAUCG | -1.06 ± 0.11 | -0.387 ± 0.12
23 | GCAAAGCAAUAUUACGUAGA | -1.64 ± 0.074 | -1.13 ± 0.095
24 | CAUGAGCAAUAUUACGGAGG | -3 ± 0.14 | -2.16 ± 0.18
25 | UUGCAGCAAUAUUACGGAUC | -3.22 ± 0.27 | -2.93 ± 0.37

Row | Sequence | self-splicing fitness (ln) (30 °C) | self-splicing fitness (ln) (37 °C)
26 | UGAGAGCAAUAUUACGAUCA | -1.62 ± 0.22 | -1.1 ± 0.25
27 | UAAAAGCAAUAUUACGUGAU | -2.46 ± 0.11 | -2.04 ± 0.16
28 | UGUCAGCAAUAUUACGGUAA | -0.649 ± 0.087 | 0.294 ± 0.1
29 | GUGCAGCAAUAUUACGUCGU | -1.01 ± 0.12 | -0.193 ± 0.14
30 | GAUUAGCAAUAUUACGCAAG | -2.11 ± 0.14 | -1.3 ± 0.13
31 | GUGUAGCAAUAUUACGGGAC | -3.44 ± 0.32 | -2.03 ± 0.28
32 | GUCGAGCAAUAUUACGUCCG | -4 ± 0.43 | -0.959 ± 0.3
33 | GUCGAGCAAUAUUACGAUAC | -0.265 ± 0.28 | -0.381 ± 0.24
34 | ACCCAGCAAUAUUACGCUGC | -3.77 ± 0.26 | -2.88 ± 0.27
35 | AGAUAGCAAUAUUACGCAUU | -2.76 ± 0.21 | -1.02 ± 0.21
36 | UUCCAGCAAUAUUACGUGCC |  | -2.5 ± 0.39
37 | UACGAGCAAUAUUACGAUCA | -1.89 ± 0.15 | -0.737 ± 0.13
38 | UGCCAGCAAUAUUACGUGUG | -1.49 ± 0.052 | -1.14 ± 0.071
39 | CGAGAGCAAUAUUACGCGGU | -3.23 ± 0.23 | -2.4 ± 0.24
40 | UCACAGCAAUAUUACGCCAC |  | -3.66 ± 0.3
41 | AGCGAGCAAUAUUACGGCUA | -0.634 ± 0.19 | -0.479 ± 0.13
42 | UUCGAGCAAUAUUACGGCUA | -1.51 ± 0.38 | -0.029 ± 0.37
43 | AUGUAGCAAUAUUACGAUAU | -0.909 ± 0.11 | 0.222 ± 0.14
44 | GUGAAGCAAUAUUACGUUUA | -1.01 ± 0.064 | -0.109 ± 0.11
45 | AGAGAGCAAUAUUACGCCUU | -3.56 ± 0.29 | -2.16 ± 0.21
46 | UCUGAGCAAUAUUACGAGAC | -2.52 ± 0.17 | 
47 | ACUCAGCAAUAUUACGUCAU | -1.29 ± 0.068 | -0.61 ± 0.088
48 | CCACAGCAAUAUUACGAGUG | -1.31 ± 0.057 | 0.0708 ± 0.062
49 | CAUUAGCAAUAUUACGCCUC | -1.17 ± 0.21 | -1.83 ± 0.31
